From the supplement of paper PMC9112550, “Optimization of the antimicrobial peptide Bac7 by deep mutational scanning” (BMC Biology, 2022) come the findings set out here.

This data set has as its system Escherichia coli TOP10. Kind of data set: shrunken log2 fold change of peptide-encoding DNA abundance (4.5 h post-induction vs induction); higher = less antimicrobial activity (less host growth inhibition). As to conditions: time post-induction: 4.5 h; library: site-saturation at positions 5, 18, 19, 20.
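Also: peptides expressed intracellularly from a pBAD plasmid library in pooled LB shake-flask culture, induced with 0.3% L-arabinose, DNA abundance read by NGS, three biological replicates, DESeq2 with apeglm shrinkage.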

RRIRHRPPRLPRPRPRPWNFPRP: the “shrunken log2 fold change” value was -0.0202.

With RRIRTRPPRLPRPRPRPWIHPRP, the “shrunken log2 fold change” value was -0.636.

For the sequence RRIRERPPRLPRPRPRPPCCPRP, the “shrunken log2 fold change” value amounted to 0.00664.

RRIRYRPPRLPRPRPRPIEVPRP: the “shrunken log2 fold change” value is -0.217.

Consider RRIRNRPPRLPRPRPRPLDTPRP, for which the “shrunken log2 fold change” value is -0.0954.

As for RRIRYRPPRLPRPRPRPTGSPRP, the “shrunken log2 fold change” value was 0.0529.

On to RRIRWRPPRLPRPRPRPERLPRP, for which the “shrunken log2 fold change” value is 0.277.

Consider RRIRCRPPRLPRPRPRPMMCPRP, for which the “shrunken log2 fold change” value came to 0.0512.

In the case of RRIRARPPRLPRPRPRPENQPRP, the “shrunken log2 fold change” value was 0.153.

RRIRRRPPRLPRPRPRPLYFPRP: the “shrunken log2 fold change” value is -0.115.

On to RRIRMRPPRLPRPRPRPYPLPRP, for which the “shrunken log2 fold change” value was -0.141.

In the case of RRIRCRPPRLPRPRPRPEQIPRP, the “shrunken log2 fold change” value was determined as 0.259.

With RRIRGRPPRLPRPRPRPMVDPRP, the “shrunken log2 fold change” value was determined as 0.0455.

Take RRIRKRPPRLPRPRPRPRHSPRP: the “shrunken log2 fold change” value is 0.152.

In the case of RRIRQRPPRLPRPRPRPIDCPRP, the “shrunken log2 fold change” value is 0.0167.

On to RRIRHRPPRLPRPRPRPQGFPRP, for which the “shrunken log2 fold change” value was -0.00136.

For the sequence RRIRDRPPRLPRPRPRPSHSPRP, the “shrunken log2 fold change” value was -0.127.

Regarding RRIRNRPPRLPRPRPRPNTSPRP, the “shrunken log2 fold change” value was -0.0898.

With RRIRNRPPRLPRPRPRPLNAPRP, the “shrunken log2 fold change” value was -0.662.

With RRIRYRPPRLPRPRPRPCKKPRP, the “shrunken log2 fold change” value is -0.0222.

RRIRTRPPRLPRPRPRPIGRPRP: the “shrunken log2 fold change” value was -0.159.

On to RRIRPRPPRLPRPRPRPGWQPRP, for which the “shrunken log2 fold change” value came to 0.0481.

RRIRNRPPRLPRPRPRPTGDPRP: the “shrunken log2 fold change” value is 0.258.

On to RRIRERPPRLPRPRPRPNNKPRP, for which the “shrunken log2 fold change” value was -0.849.

As to RRIRVRPPRLPRPRPRPWLAPRP, the “shrunken log2 fold change” value amounted to 0.232.

Consider RRIRERPPRLPRPRPRPQFKPRP, for which the “shrunken log2 fold change” value is -0.444.

On to RRIRSRPPRLPRPRPRPFSTPRP, for which the “shrunken log2 fold change” value is -0.372.

As to RRIRHRPPRLPRPRPRPWFNPRP, the “shrunken log2 fold change” value was -0.153.

With RRIRIRPPRLPRPRPRPWCAPRP, the “shrunken log2 fold change” value was -0.377.

For RRIRWRPPRLPRPRPRPKIAPRP, the “shrunken log2 fold change” value stood at 0.41.

With RRIRPRPPRLPRPRPRPDCEPRP, the “shrunken log2 fold change” value was determined as 0.0556.

On to RRIRWRPPRLPRPRPRPSQSPRP, for which the “shrunken log2 fold change” value is -0.0797.

In the case of RRIRERPPRLPRPRPRPQRDPRP, the “shrunken log2 fold change” value is 0.0296.

In the case of RRIRYRPPRLPRPRPRPYHCPRP, the “shrunken log2 fold change” value is -0.00776.

As for RRIRCRPPRLPRPRPRPKPWPRP, the “shrunken log2 fold change” value turned out to be 0.275.

As for RRIRFRPPRLPRPRPRPKSAPRP, the “shrunken log2 fold change” value is -0.00592.

Turning to RRIRIRPPRLPRPRPRPCGFPRP, the “shrunken log2 fold change” value was -0.0835.

In the case of RRIRMRPPRLPRPRPRPVQSPRP, the “shrunken log2 fold change” value stood at 0.206.

Regarding RRIRRRPPRLPRPRPRPRDWPRP, the “shrunken log2 fold change” value is 1.01.

For RRIRLRPPRLPRPRPRPIPAPRP, the “shrunken log2 fold change” value is -0.112.

For the sequence RRIRGRPPRLPRPRPRPWRIPRP, the “shrunken log2 fold change” value is -0.15.

As to RRIRLRPPRLPRPRPRPQDMPRP, the “shrunken log2 fold change” value was -0.169.

Take RRIRIRPPRLPRPRPRPQLWPRP: the “shrunken log2 fold change” value was 0.575.

As to RRIRKRPPRLPRPRPRPIPLPRP, the “shrunken log2 fold change” value was 0.0106.

Regarding RRIRRRPPRLPRPRPRPKINPRP, the “shrunken log2 fold change” value was -0.123.

Consider RRIRFRPPRLPRPRPRPTDHPRP, for which the “shrunken log2 fold change” value is -0.323.

With RRIRVRPPRLPRPRPRPDPHPRP, the “shrunken log2 fold change” value was -0.16.

Turning to RRIRKRPPRLPRPRPRPWCMPRP, the “shrunken log2 fold change” value turned out to be 0.183.

As for RRIRLRPPRLPRPRPRPIDPPRP, the “shrunken log2 fold change” value is -0.379.

Take RRIRKRPPRLPRPRPRPMIAPRP: the “shrunken log2 fold change” value is 0.509.

On to RRIRDRPPRLPRPRPRPDGGPRP, for which the “shrunken log2 fold change” value was -0.00182.

In the case of RRIRCRPPRLPRPRPRPRSEPRP, the “shrunken log2 fold change” value turned out to be 0.325.

Consider RRIRRRPPRLPRPRPRPIPSPRP, for which the “shrunken log2 fold change” value came out at 0.247.

Consider RRIRNRPPRLPRPRPRPDKCPRP, for which the “shrunken log2 fold change” value is -0.116.

Turning to RRIRLRPPRLPRPRPRPLTRPRP, the “shrunken log2 fold change” value turned out to be 1.93.

On to RRIRARPPRLPRPRPRPPQVPRP, for which the “shrunken log2 fold change” value was 0.162.

Turning to RRIRNRPPRLPRPRPRPVHKPRP, the “shrunken log2 fold change” value is -0.182.

With RRIRIRPPRLPRPRPRPGWWPRP, the “shrunken log2 fold change” value came to 0.405.

Regarding RRIRPRPPRLPRPRPRPDWTPRP, the “shrunken log2 fold change” value was -0.063.

Consider RRIRRRPPRLPRPRPRPSDHPRP, for which the “shrunken log2 fold change” value is -0.0811.

Turning to RRIRPRPPRLPRPRPRPPDEPRP, the “shrunken log2 fold change” value was found to be 0.444.

As for RRIRRRPPRLPRPRPRPLLFPRP, the “shrunken log2 fold change” value worked out at 0.278.

Regarding RRIRYRPPRLPRPRPRPWRGPRP, the “shrunken log2 fold change” value was 0.318.

Take RRIRSRPPRLPRPRPRPHMKPRP: the “shrunken log2 fold change” value turned out to be 0.427.

For RRIRVRPPRLPRPRPRPSNYPRP, the “shrunken log2 fold change” value is -0.342.

For the sequence RRIRKRPPRLPRPRPRPITRPRP, the “shrunken log2 fold change” value is 0.132.

On to RRIRHRPPRLPRPRPRPQFIPRP, for which the “shrunken log2 fold change” value was -0.0365.

Take RRIRGRPPRLPRPRPRPNDRPRP: the “shrunken log2 fold change” value is 0.288.

On to RRIRPRPPRLPRPRPRPIKFPRP, for which the “shrunken log2 fold change” value is -0.908.

RRIRTRPPRLPRPRPRPWMYPRP: the “shrunken log2 fold change” value was -0.22.

With RRIRDRPPRLPRPRPRPAGVPRP, the “shrunken log2 fold change” value worked out at 0.25.

On to RRIRPRPPRLPRPRPRPHPNPRP, for which the “shrunken log2 fold change” value was determined as 0.00254.

With RRIRNRPPRLPRPRPRPSCAPRP, the “shrunken log2 fold change” value is -0.0999.

Take RRIRRRPPRLPRPRPRPKGCPRP: the “shrunken log2 fold change” value stood at 0.0288.

Consider RRIRSRPPRLPRPRPRPSMWPRP, for which the “shrunken log2 fold change” value came out at 0.149.

Take RRIRVRPPRLPRPRPRPRTYPRP: the “shrunken log2 fold change” value is -0.309.

As for RRIRDRPPRLPRPRPRPDMQPRP, the “shrunken log2 fold change” value worked out at 1.13.

On to RRIRGRPPRLPRPRPRPQYVPRP, for which the “shrunken log2 fold change” value is -0.0061.

As to RRIRPRPPRLPRPRPRPIRYPRP, the “shrunken log2 fold change” value is 0.00275.

Regarding RRIRSRPPRLPRPRPRPGAGPRP, the “shrunken log2 fold change” value was 0.445.

On to RRIRHRPPRLPRPRPRPCGSPRP, for which the “shrunken log2 fold change” value is -0.153.

With RRIRPRPPRLPRPRPRPEMVPRP, the “shrunken log2 fold change” value amounted to 0.191.

Consider RRIRCRPPRLPRPRPRPCGEPRP, for which the “shrunken log2 fold change” value is 0.218.

As to RRIRSRPPRLPRPRPRPCFKPRP, the “shrunken log2 fold change” value was -0.173.

For the sequence RRIRWRPPRLPRPRPRPHMAPRP, the “shrunken log2 fold change” value stood at 0.00551.

For RRIRERPPRLPRPRPRPSIQPRP, the “shrunken log2 fold change” value was -0.0558.

Regarding RRIRGRPPRLPRPRPRPFNPPRP, the “shrunken log2 fold change” value is -0.439.

Turning to RRIRMRPPRLPRPRPRPRVSPRP, the “shrunken log2 fold change” value came out at 0.0315.

Take RRIRDRPPRLPRPRPRPMKNPRP: the “shrunken log2 fold change” value is -0.0366.

RRIRLRPPRLPRPRPRPQCAPRP: the “shrunken log2 fold change” value stood at 0.228.

In the case of RRIRHRPPRLPRPRPRPDMYPRP, the “shrunken log2 fold change” value was -0.00022.

In the case of RRIRCRPPRLPRPRPRPCYSPRP, the “shrunken log2 fold change” value is -0.379.

Turning to RRIRLRPPRLPRPRPRPSLSPRP, the “shrunken log2 fold change” value was -0.305.

Regarding RRIRRRPPRLPRPRPRPQYKPRP, the “shrunken log2 fold change” value is -0.401.

Take RRIRWRPPRLPRPRPRPLVCPRP: the “shrunken log2 fold change” value was 0.476.

For RRIRFRPPRLPRPRPRPHHTPRP, the “shrunken log2 fold change” value is -0.597.

For RRIRQRPPRLPRPRPRPLDDPRP, the “shrunken log2 fold change” value is -0.0837.

As for RRIRPRPPRLPRPRPRPKMFPRP, the “shrunken log2 fold change” value was found to be 0.149.

As for RRIRCRPPRLPRPRPRPRADPRP, the “shrunken log2 fold change” value was 0.454.

For the sequence RRIRYRPPRLPRPRPRPQIDPRP, the “shrunken log2 fold change” value came to 0.0753.

RRIRHRPPRLPRPRPRPYQYPRP: the “shrunken log2 fold change” value is -0.00963.

Consider RRIRQRPPRLPRPRPRPAMPPRP, for which the “shrunken log2 fold change” value stood at 0.306.

Take RRIRKRPPRLPRPRPRPGCMPRP: the “shrunken log2 fold change” value is 0.993.

With RRIRQRPPRLPRPRPRPFYFPRP, the “shrunken log2 fold change” value is -0.697.

Turning to RRIRHRPPRLPRPRPRPCCKPRP, the “shrunken log2 fold change” value is 1.89.

In the case of RRIRDRPPRLPRPRPRPDMYPRP, the “shrunken log2 fold change” value turned out to be 0.214.

As for RRIRGRPPRLPRPRPRPDTQPRP, the “shrunken log2 fold change” value was determined as 0.632.

Regarding RRIRFRPPRLPRPRPRPPMSPRP, the “shrunken log2 fold change” value was found to be 0.0816.

With RRIRPRPPRLPRPRPRPDCPPRP, the “shrunken log2 fold change” value is -0.0368.

On to RRIRDRPPRLPRPRPRPKNYPRP, for which the “shrunken log2 fold change” value is -0.303.

RRIRIRPPRLPRPRPRPYNYPRP: the “shrunken log2 fold change” value was -0.65.

In the case of RRIRQRPPRLPRPRPRPHRCPRP, the “shrunken log2 fold change” value came out at 0.109.

In the case of RRIRHRPPRLPRPRPRPDGHPRP, the “shrunken log2 fold change” value was -0.0262.

For the sequence RRIRSRPPRLPRPRPRPQLYPRP, the “shrunken log2 fold change” value was -0.071.

RRIRERPPRLPRPRPRPGCGPRP: the “shrunken log2 fold change” value was found to be 0.307.

For the sequence RRIRIRPPRLPRPRPRPGCFPRP, the “shrunken log2 fold change” value is -0.0641.

Take RRIRFRPPRLPRPRPRPSWMPRP: the “shrunken log2 fold change” value was -0.0113.

As to RRIRTRPPRLPRPRPRPHTEPRP, the “shrunken log2 fold change” value was -0.215.

Consider RRIRWRPPRLPRPRPRPVTTPRP, for which the “shrunken log2 fold change” value was -0.0727.

As for RRIRPRPPRLPRPRPRPCARPRP, the “shrunken log2 fold change” value is 0.0698.

For the sequence RRIRFRPPRLPRPRPRPDQCPRP, the “shrunken log2 fold change” value was -0.0562.

Regarding RRIRYRPPRLPRPRPRPAHWPRP, the “shrunken log2 fold change” value came out at 0.0585.

On to RRIRYRPPRLPRPRPRPGAPPRP, for which the “shrunken log2 fold change” value was found to be 0.312.

Regarding RRIRWRPPRLPRPRPRPSCYPRP, the “shrunken log2 fold change” value was -0.122.

Turning to RRIRPRPPRLPRPRPRPQQWPRP, the “shrunken log2 fold change” value amounted to 0.182.
